The target in test [1] is FIP200 CLAW domain (Homo sapiens) (UniProt Q8TDY2). The conditions noted are these: cited from earlier work.
The target is the same in test [2]. The conditions noted are these: cited from earlier work. The source holds these as a separate data set.
Test [3] concerns the target T1, FITC-labeled TNIP1 FIR peptide, pS123.
T1 chain: SSGTSSEFEVVTPEE
Briefly: fluorescence polarisation.

The target in test [4] is T2, FITC-labeled TNIP1 FIR peptide, pS122.
T2 chain: SSGTSSEFEVVTPEE
Briefly: fluorescence polarisation.

Test [5] concerns the target T3, FITC-labeled TNIP1 FIR peptide, unmodified.
T3 chain: SSGTSSEFEVVTPEE
The test is described as follows: fluorescence polarisation.

Test [6] deals with recombinant His6-TEV-FIP200-CLAW domain. The test is described as follows: fluorescence polarisation.

Like-named read-outs stand apart in the source and are kept apart here. Where no end group is shown, it is not given here.

Consider OPTN (from UniProt Q96CV9), for which, in test [1], the Kd is 306 µM. Consider “OPTN phosphorylated (from UniProt Q96CV9)”, for which, in test [2], the Kd is 11.5 µM.

B1: recombinant His6-TEV-FIP200-CLAW domain (domain or fragment)
chain: SRHSEKIAIRDFQVGDLVLIILDERHDNYVLFTVSPTLYFLHSESLPALDLKPGEGASGASRRPWVLGKVMEKEYCQAKKAQNRFKVPLGTKFYRVKAVSWNKKV
modifications: not checked
Turning to B1, the figures for the Kd in test [3], in test [4] and in test [5] were 3.27 µM, 9.7 µM and 46 µM, respectively.

B2: unlabeled TNIP1 pS123 peptide (peptide)
chain: SSGTSSEFEVVTPEE
modifications: also: phosphoserine pS123, place not mapped
With B2, the half-maximal inhibitory concentration (IC50) in test [6] came out at 70.2 µM.
